The target in test [1] is T1, SLITRK1-S330A-Fc (human, UniProt Q96PX8 18-616, S330A).
T1 sequence: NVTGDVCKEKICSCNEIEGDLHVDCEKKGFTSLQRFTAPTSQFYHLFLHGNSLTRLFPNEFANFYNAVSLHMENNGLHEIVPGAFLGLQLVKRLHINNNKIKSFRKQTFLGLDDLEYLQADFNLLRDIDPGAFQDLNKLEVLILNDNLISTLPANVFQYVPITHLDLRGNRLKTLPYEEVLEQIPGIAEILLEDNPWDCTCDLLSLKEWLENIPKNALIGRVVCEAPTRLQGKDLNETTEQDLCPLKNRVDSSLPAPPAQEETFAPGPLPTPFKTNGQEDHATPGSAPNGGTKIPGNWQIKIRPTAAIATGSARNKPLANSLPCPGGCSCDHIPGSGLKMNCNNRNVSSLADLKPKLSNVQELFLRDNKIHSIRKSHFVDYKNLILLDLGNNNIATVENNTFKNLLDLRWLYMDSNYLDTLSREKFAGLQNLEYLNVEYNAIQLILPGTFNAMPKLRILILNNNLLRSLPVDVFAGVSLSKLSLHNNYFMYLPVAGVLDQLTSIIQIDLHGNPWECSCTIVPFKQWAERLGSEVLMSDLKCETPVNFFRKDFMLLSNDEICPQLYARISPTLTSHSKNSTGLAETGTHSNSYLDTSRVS
Put plainly: BLI. A general note: Biolayer interferometry detects binding as a change in optical thickness at a sensor tip.

In test [2] the target is T2, SLITRK1-A444S-Fc (human, UniProt Q96PX8 18-616, A444S).
T2 sequence: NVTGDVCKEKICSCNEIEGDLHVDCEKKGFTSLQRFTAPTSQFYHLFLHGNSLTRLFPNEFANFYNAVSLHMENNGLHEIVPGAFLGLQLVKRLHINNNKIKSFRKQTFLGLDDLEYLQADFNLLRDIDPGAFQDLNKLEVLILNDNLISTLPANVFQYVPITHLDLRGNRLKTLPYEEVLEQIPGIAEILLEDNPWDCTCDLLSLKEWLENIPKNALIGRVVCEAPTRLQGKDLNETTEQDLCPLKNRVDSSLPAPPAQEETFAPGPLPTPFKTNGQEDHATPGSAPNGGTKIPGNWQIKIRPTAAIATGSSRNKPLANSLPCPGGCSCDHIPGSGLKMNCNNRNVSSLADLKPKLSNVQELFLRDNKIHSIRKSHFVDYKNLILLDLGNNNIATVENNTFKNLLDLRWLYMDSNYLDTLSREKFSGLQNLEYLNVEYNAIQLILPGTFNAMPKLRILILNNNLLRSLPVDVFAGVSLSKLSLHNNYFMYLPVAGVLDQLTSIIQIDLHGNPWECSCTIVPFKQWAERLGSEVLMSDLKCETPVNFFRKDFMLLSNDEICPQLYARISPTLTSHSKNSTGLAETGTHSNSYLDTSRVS
Put plainly: BLI.

The target in test [3] is T1, SLITRK1-S330A-Fc. Put plainly: BLI. The source holds these as a separate data set.
For test [4], the target named is T2, SLITRK1-A444S-Fc. Put plainly: BLI. This is another data set of the same source.
Test [5] addresses T3, SLITRK1 ECD-immunoglobulin Fc domain-fusion protein (SLITRK1-WT-Fc) (human, UniProt Q96PX8 18-616).
T3 construct: signal peptide in the construct; human SLITRK1 extracellular domain, amino acid number 1-616 in NP_443142; also called SLITRK1 ECD-Fc; SLITRK1 ECD-Fc fusion protein
T3 sequence (looked up): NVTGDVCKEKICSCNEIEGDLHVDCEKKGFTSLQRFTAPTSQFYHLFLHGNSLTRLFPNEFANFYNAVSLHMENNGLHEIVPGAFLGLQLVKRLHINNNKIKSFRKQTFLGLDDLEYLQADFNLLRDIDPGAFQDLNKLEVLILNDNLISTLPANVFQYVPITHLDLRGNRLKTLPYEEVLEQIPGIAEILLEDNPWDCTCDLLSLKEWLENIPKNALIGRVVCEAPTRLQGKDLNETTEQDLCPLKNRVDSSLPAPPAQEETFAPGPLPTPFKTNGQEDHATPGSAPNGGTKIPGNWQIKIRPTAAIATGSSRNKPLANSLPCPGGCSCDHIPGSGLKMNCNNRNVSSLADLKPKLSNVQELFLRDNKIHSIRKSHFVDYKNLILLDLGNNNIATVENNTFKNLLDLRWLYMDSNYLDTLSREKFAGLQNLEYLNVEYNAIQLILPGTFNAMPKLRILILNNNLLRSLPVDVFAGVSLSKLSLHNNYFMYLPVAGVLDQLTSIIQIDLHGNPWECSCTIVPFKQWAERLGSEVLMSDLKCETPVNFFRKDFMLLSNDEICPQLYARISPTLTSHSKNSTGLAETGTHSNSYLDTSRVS
Put plainly: quartz crystal microbalance; AffinixQ, 27 MHz; about 200 femtomoles SLITRK1 ECD-Fc (WT, S330A or A444S) immobilised through anti-human IgG Fc on the gold resonator; ECD-His6 proteins added at several concentrations; 50 mM Tris-HCl pH 7.6, 15 mM NaCl, 140 mM KCl, 0.5 mM MgCl2, 2 mM CaCl2; 25 ± 1 °C; KD = koff/kon. The conditions noted are these: both partners purified.

Test [6] concerns the target T4, SLITRK1-S330A-Fc (human, UniProt Q96PX8 18-616, S330A).
T4 construct: signal peptide in the construct; human SLITRK1 extracellular domain, amino acid number 1-616 in NP_443142, with the patient-derived variant S330A; S330A is a variant found in patients and controls (global MAF 0.002); made by site-directed mutagenesis; also called SLITRK1 ECD-Fc S330A
T4 sequence (looked up): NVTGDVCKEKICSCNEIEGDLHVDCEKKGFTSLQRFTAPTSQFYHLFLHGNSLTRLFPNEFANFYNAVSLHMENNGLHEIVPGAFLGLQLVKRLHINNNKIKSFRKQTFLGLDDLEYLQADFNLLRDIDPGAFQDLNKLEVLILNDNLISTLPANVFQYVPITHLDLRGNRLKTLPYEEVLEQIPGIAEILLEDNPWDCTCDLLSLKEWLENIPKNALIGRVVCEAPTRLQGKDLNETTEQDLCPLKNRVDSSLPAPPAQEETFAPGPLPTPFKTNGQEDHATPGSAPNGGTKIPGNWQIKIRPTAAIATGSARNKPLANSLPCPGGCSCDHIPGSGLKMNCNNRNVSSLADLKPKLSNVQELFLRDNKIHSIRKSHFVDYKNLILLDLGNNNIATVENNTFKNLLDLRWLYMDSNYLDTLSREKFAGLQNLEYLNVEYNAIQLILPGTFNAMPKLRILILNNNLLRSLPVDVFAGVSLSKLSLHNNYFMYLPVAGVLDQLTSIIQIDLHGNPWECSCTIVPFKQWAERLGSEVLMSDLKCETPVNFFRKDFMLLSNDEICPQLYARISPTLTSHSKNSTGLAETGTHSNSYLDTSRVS
The description is as above. The conditions noted are these: both partners purified.

Test [7] has as its target T5, SLITRK1-A444S-Fc (human, UniProt Q96PX8 18-616, A444S).
T5 construct: signal peptide in the construct; human SLITRK1 extracellular domain, amino acid number 1-616 in NP_443142, with the patient-derived variant A444S; A444S was found in 2 of 364 patients with bipolar disorder; made by site-directed mutagenesis; also called SLITRK1 ECD-Fc A444S
T5 sequence (looked up): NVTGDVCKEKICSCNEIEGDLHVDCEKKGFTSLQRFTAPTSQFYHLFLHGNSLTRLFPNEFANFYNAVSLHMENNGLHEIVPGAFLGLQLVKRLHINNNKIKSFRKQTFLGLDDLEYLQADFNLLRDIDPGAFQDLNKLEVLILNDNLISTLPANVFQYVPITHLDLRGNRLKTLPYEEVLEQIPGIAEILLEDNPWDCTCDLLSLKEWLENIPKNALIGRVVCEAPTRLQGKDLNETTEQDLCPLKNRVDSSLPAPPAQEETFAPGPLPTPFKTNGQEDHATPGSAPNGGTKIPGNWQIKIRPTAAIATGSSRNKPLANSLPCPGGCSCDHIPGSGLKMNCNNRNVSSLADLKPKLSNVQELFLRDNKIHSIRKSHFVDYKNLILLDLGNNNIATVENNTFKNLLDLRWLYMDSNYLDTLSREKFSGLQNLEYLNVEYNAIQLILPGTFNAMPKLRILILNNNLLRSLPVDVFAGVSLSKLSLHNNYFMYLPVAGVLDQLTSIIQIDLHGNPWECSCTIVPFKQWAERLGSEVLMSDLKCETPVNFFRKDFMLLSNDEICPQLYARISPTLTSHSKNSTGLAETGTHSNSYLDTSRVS
The test is described as above. The conditions noted are these: both partners purified.

B1: L1CAM ECD-His6 (777-NC-100, R&D Systems) (domain or fragment)
chain: IQIPEEYEGHHVMEPPVITEQSPRRLVVFPTDDISLKCEASGKPEVQFRWTRDGVHFKPKEELGVTVYQSPHSGSFTITGNNSNFAQRFQGIYRCFASNKLGTAMSHEIRLMAEGAPKWPKETVKPVEVEEGESVVLPCNPPPSAEPLRIYWMNSKILHIKQDERVTMGQNGNLYFANVLTSDNHSDYICHAHFPGTRTIIQKEPIDLRVKATNSMIDRKPRLLFPTNSSSHLVALQGQPLVLECIAEGFPTPTIKWLRPSGPMPADRVTYQNHNKTLQLLKVGEEDDGEYRCLAENSLGSARHAYYVTVEAAPYWLHKPQSHLYGPGETARLDCQVQGRPQPEVTWRINGIPVEELAKDQKYRIQRGALILSNVQPSDTMVTQCEARNRHGLLLANAYIYVVQLPAKILTADNQTYMAVQGSTAYLLCKAFGAPVPSVQWLDEDGTTVLQDERFFPYANGTLGIRDLQANDTGRYFCLAANDQNNVTIMANLKVKDATQITQGPRSTIEKKGSRVTFTCQASFDPSLQPSITWRGDGRDLQELGDSDKYFIEDGRLVIHSLDYSDQGNYSCVASTELDVVESRAQLLVVGSPGPVPRLVLSDLHLLTQSQVRVSWSPAEDHNAPIEKYDIEFEDKEMAPEKWYSLGKVPGNQTSTTLKLSPYVHYTFRVTAINKYGPGEPSPVSETVVTPEAAPEKNPVDVKGEGNETTNMVITWKPLRWMDWNAPQVQYRVQWRPQGTRGPWQEQIVSDPFLVVSNTSTFVPYEIKVQAVNSQGKGPEPQVTIGYSGEDYPQAIPELEGIEILNSSAVLVKWRPVDLAQVKGHLRGYNVTYWREGSQRKHSKRHIHKDHVVVPANTTSVILSGLRPYSSYHLEVQAFNGRGSGPASEFTFSTPEGVPGHPEALHLECQSNTSLLLRWQPPLSHNGVLTGYVLSYHPLDEGGKGQLSFNLRDPELRTHNLTDLSPHLRYRFQLQATTKEGPGEAIVREGGTMALSGISDFGNISATAGENYSVVSWVPKEGQCNFRFHILFKALGEEKGGASLSPQYVSYNQSSYTQWDLQPDTDYEIHLFKERMFRHQMAVKTNGTGRVRLPPAGFATE
What is called koff is the rate constant with which the complex falls apart. Higher therefore signals fast dissociation. As a reminder, the Kd is the concentration at which binding is half-saturated. B1: the off-rate (koff) with SLITRK1-S330A-Fc [1] turned out to be 0.00084 s⁻¹; in the test with SLITRK1-A444S-Fc [2] it was 0.0008 s⁻¹. The figures for the Kd in the test with SLITRK1-S330A-Fc [3] and in the test with SLITRK1-A444S-Fc [4] were 5.83 nM and 4.69 nM, respectively.

B2: human Neurofascin ECD-His6 (8208-NF-050, R&D Systems) (domain or fragment)
chain: IEIPMDLTQPPTITKQSAKDHIVDPRDNILIECEAKGNPAPSFHWTRNSRFFNIAKDPRVSMRRRSGTLVIDFRSGGRPEEYEGEYQCFARNKFGTALSNRIRLQVSKSPLWPKENLDPVVVQEGAPLTLQCNPPPGLPSPVIFWMSSSMEPITQDKRVSQGHNGDLYFSNVMLQDMQTDYSCNARFHFTHTIQQKNPFTLKVLTNHPYNDSSLRNHPDMYSARGVAERTPSFMYPQGTASSQMVLRGMDLLLECIASGVPTPDIAWYKKGGDLPSDKAKFENFNKALRITNVSEEDSGEYFCLASNKMGSIRHTISVRVKAAPYWLDEPKNLILAPGEDGRLVCRANGNPKPTVQWMVNGEPLQSAPPNPNREVAGDTIIFRDTQISSRAVYQCNTSNEHGYLLANAFVSVLDVPPRMLSPRNQLIRVILYNRTRLDCPFFGSPIPTLRWFKNGQGSNLDGGNYHVYENGSLEIKMIRKEDQGIYTCVATNILGKAENQVRLEVKDPTRIYRMPEDQVARRGTTVQLECRVKHDPSLKLTVSWLKDDEPLYIGNRMKKEDDSLTIFGVAERDQGSYTCVASTELDQDLAKAYLTVLGRPDRPRDLELTDLAERSVRLTWIPGDANNSPITDYVVQFEEDQFQPGVWHDHSKYPGSVNSAVLRLSPYVNYQFRVIAINEVGSSHPSLPSERYRTSGAPPESNPGDVKGEGTRKNNMEITWTPMNATSAFGPNLRYIVKWRRRETREAWNNVTVWGSRYVVGQTPVYVPYEIRVQAENDFGKGPEPESVIGYSGEDYPRAAPTEVKVRVMNSTAISLQWNRVYSDTVQGQLREYRAYYWRESSLLKNLWVSQKRQQASFPGDRLRGVVSRLFPYSNYKLEMVVVNGRGDGPRSETKEFTTPEGVPSAPRRFRVRQPNLETINLEWDHPEHPNGIMIGYTLKYVAFNGTKVGKQIVENFSPNQTKFTVQRTDPVSRYRFTLSARTQVGSGEAVTEESPAPPNEAYTNNQADIATQGW
As to B2, the koff with SLITRK1-S330A-Fc [1] is 0.00665 s⁻¹; with SLITRK1-A444S-Fc [2], 0.00577 s⁻¹. For the same molecule, the dissociation constant (Kd) stood at 16.6 nM in test [5], 59.3 nM in the test with SLITRK1-S330A-Fc [6] and 14.2 nM with SLITRK1-A444S-Fc [7].

The values are drawn from article PMC9463131, “SLITRK1-mediated noradrenergic projection suppression in the neonatal prefrontal cortex” (Communications Biology, 2022).
